Paper PMC6706427

Molecular target: Flag-CLIC4-Y104A (dog)
Experiment: co-IP; lysates of co-transfected 293T cells in RIPA buffer plus 0.5% CHAPS; anti-Flag or control antibody; Protein-G Dynabeads; 4 °C overnight; 4 washes; blots quantified with the Odyssey system, three independent repeats

mCherry-Tsg101 (from UniProt Q99816 1-390) (natural protein)
percent reduction of co-precipitation against Flag-CLIC4 wild type: 40.4 % reduced
